Columns and labels:
[1] = target: T1, Cut3^Smc4 (fission yeast condensin SMC subunit) (S. pombe, UniProt P41004 1-1324); experiment: cross-linking; sulfo-SDA cross-link mass spectrometry (CLMS) of the purified five-subunit condensin complex with equimolar 124 bp linear dsDNA and 0.5 mM ADP·BeF3 (DNA-gripping state); CL buffer, 30°C 30 min, UV 365 nm on ice; 1% FDR at residue-pair level; conditions: both partners purified
T1 construct: Cut3 (Smc4), S. pombe condensin SMC subunit; cDNA cloned into an S. cerevisiae expression vector; source: S. cerevisiae (w303, pep4 deleted), co-overexpressed with the other four condensin subunits from GAL1-10 promoters; in cell extract, and purified as the complex (IgG-agarose, 3C protease elution, heparin, Superose 6)
T1 sequence (looked up): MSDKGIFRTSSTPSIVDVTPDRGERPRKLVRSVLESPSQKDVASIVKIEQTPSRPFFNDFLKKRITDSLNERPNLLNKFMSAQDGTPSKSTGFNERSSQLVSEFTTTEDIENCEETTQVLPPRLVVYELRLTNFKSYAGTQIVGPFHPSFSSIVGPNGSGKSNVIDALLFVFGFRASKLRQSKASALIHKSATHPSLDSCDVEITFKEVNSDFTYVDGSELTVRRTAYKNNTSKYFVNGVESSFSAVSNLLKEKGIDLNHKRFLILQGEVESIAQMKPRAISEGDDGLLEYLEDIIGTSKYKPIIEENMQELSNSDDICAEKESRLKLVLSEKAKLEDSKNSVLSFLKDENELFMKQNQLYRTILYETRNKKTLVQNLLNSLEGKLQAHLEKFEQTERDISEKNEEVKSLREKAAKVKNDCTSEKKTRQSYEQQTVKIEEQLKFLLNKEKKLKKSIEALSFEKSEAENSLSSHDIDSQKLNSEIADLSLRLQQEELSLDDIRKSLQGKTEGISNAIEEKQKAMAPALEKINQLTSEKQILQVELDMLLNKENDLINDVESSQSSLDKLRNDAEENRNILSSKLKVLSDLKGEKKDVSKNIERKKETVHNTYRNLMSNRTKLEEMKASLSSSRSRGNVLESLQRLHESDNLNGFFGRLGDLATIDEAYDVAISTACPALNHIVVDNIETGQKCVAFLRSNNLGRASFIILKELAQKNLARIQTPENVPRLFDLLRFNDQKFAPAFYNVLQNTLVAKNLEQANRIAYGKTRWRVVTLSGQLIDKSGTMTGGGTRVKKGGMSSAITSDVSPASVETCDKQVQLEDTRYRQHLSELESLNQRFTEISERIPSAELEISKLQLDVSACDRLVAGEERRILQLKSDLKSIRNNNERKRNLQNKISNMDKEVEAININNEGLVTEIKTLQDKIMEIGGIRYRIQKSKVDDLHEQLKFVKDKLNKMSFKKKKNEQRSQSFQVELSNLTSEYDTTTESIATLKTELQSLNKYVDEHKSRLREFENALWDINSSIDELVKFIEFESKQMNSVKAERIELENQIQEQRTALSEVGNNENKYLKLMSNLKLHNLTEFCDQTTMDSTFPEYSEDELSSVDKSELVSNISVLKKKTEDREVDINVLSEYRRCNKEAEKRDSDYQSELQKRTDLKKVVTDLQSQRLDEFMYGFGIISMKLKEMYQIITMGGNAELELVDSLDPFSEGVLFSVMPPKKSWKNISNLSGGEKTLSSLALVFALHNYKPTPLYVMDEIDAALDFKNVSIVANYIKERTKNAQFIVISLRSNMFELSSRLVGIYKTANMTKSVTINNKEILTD

[2] = target: T2, Cut14^Smc2 (fission yeast condensin SMC subunit) (S. pombe, UniProt P41003 1-1172); experiment: as above; conditions: both partners purified
T2 construct: Cut14 (Smc2), S. pombe condensin SMC subunit; cDNA cloned into an S. cerevisiae expression vector; The Pk tag is used for the condensin immunoprecipitation in the DNA assays; also called Cut14-3xPk; source: S. cerevisiae (w303, pep4 deleted), co-overexpressed with the other four condensin subunits from GAL1-10 promoters; in cell extract, and purified as the complex (IgG-agarose, 3C protease …)
T2 sequence (looked up): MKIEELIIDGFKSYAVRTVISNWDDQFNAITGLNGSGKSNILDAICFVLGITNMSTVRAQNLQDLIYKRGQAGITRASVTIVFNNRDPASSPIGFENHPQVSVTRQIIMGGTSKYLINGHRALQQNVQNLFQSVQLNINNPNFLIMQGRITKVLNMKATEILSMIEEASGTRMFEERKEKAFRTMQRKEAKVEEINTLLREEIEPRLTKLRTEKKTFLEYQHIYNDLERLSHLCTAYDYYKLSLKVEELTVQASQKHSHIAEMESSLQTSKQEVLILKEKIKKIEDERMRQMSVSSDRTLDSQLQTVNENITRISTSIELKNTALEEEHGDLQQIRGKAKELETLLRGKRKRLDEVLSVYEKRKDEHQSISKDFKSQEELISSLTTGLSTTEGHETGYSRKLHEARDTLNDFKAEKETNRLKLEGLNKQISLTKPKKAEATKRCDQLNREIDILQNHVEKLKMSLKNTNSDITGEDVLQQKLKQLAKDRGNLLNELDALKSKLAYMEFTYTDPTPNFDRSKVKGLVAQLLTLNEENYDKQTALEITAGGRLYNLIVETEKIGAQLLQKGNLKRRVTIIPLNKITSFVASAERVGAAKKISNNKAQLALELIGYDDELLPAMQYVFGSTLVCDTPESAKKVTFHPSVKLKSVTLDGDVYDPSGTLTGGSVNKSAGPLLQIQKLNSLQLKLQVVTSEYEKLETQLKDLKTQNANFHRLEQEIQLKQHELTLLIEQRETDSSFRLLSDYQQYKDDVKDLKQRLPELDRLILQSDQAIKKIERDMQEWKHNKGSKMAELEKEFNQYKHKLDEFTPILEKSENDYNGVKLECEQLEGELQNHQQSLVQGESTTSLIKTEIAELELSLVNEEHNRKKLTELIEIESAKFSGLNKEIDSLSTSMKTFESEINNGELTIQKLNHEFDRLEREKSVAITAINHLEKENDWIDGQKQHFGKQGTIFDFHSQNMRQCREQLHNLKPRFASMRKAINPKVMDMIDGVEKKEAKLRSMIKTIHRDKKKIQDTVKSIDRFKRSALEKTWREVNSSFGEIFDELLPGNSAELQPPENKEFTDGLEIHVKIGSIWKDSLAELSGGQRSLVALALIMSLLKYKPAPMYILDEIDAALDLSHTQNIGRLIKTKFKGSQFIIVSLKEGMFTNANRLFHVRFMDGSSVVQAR

B1: Cnd1^Ycs4 (fission yeast condensin HEAT-repeat subunit) (natural protein, S. pombe, UniProt O94679 1-1158, looked up)
chain: MSLDLLSRLKKYIHDEENSDLDSIYAECENAGLTAVVNDVIDTLLLGTSSCFDEDCLEKLFAICSHFADLSSSVRNKVYDLLTSNISSESAILEDMISANATDFTVPQTNLETTGIAFQLTVNSLSSSNQLSVIRSSTNTVKGRKKNPTTNSNWNGISHVNALLDAIITLFQKKLSRVWTTSSERDMFLSLFLKPIYTLMESEINIKNASFRSRLFNIIGLAVQFHNHTTAAETNIIQNLQYFEHLSEYAADLVHIVTVQFNSVTLAEGIIRTLCSLEFNDNDVKGPKQVALFLVRLSSLIPNLCLKQLTQLVKLLDSESYTLRCAIIEVLANVVIDQIHDEAQNEMSESVPATVQSLMDLLSERLLDISPYCRTKVLHVFIKIFDLPIKYPRKRQEIAELVIRCLQDRSSHVRRNAIKLFSKLLTTHPFSVMHNGLLTRNIWEKGLSIIEEQLNSLQPKQQEKVVDSELEVDENLLEDATMIQDDESHEGESHLENSLSEYVDSVPAEEIVKVNLTKRFYLEALQYIDIVEAGAKIISQLLFAKNKSEVIESMDFFVFCNSFGISSSKLYIKKMIHLIWVKGTSDEGNNIQNHVLSCYKTLFFEPPPNSGTNEAANYIARNLISLTYDASLAELTSLEQMLCILMKDGYFSHLVITKLWQVYSYQKKDISRTQRRGSIIVIGMLALGNTDVVMQGLDHLIQIGLGPPGLEDLVLARYTCIAIKRIGKDASGSSNINFPNSHTLCQKLCMLLLRPSFSEEWFGLEEQAIEAIYAVAKHPDELCTNIILLLTKQLFKPSNHENTTSNDDHAMDEDLDDSPEEETLKDEEEIGIRLAHLIFLVGHVAIKQLVYIEYCEAEFKRRKADAERLAVQNSNNPINGQETSEYDLITGTSEDDFSEAMTFIRERELLYGENSLLSRFAPLVVELCSNHKSHNNQSLLLAASLTLSKFMCLSNNFCMEHLPLLITILEKCDNPIIRNNLVIGLADLTVCFNHFIDEISEYLYRRLMDEESSVKKTCFMTLAFLILAGQIKVKGQLGIMARSLEDEDARISDLARMFFTDFAAKDNSVYNNFIDIFSVLSRSAEEQDEDDAKFKRIIRFLTSFIEKERHTKQLAERLAARLDRCKTQRQWDHVVYALSLLPHKADNIQKLIDDGYHE
notes: Cnd1 (Ycs4), S. pombe condensin HEAT-repeat subunit; cDNA cloned into an S. cerevisiae expression vector; source: S. cerevisiae (w303, pep4 deleted), co-overexpressed with the other four condensin subunits from GAL1-10 promoters; in cell extract, and purified as the complex (IgG-agarose, 3C protease elution, heparin, Superose 6)
binding result [1]: binds | binding result [2]: binds
